Eight proteins from article PMC6987189, “Native aggregation is a common feature among triosephosphate isomerases of different species” (Scientific Reports, 2020) can be followed below.

What all share (test): purified protein
Settings in all cases: GAP to DHAP direction, 25 °C, 100 mM TEA, 10 mM EDTA, 0.2 mM NADH, GAP 0.3 to 3 mM

Substrate in series [1]: O=C[C@H](O)COP(=O)(O)O
Format: biochemical, Plasmodium falciparum.

Substrate in series [2]: O=C[C@H](O)COP(=O)(O)O
Format: biochemical, Saccharomyces cerevisiae.

Substrate in series [3]: O=C[C@H](O)COP(=O)(O)O
Format: biochemical, Trypanosoma cruzi.

Substrate in series [4]: O=C[C@H](O)COP(=O)(O)O
Format: biochemical, Thermus thermophilus.

Substrate in series [5]: O=C[C@H](O)COP(=O)(O)O
The class given is biochemical, Trypanosoma brucei.

Substrate in series [6]: O=C[C@H](O)COP(=O)(O)O
The class given is biochemical, Leishmania mexicana.

Substrate in series [7]: O=C[C@H](O)COP(=O)(O)O
Format: biochemical, Taenia solium.

Substrate in series [8]: O=C[C@H](O)COP(=O)(O)O
The class given is biochemical, Entamoeba histolytica.

B1: PfTIM (Plasmodium falciparum) (protein)
chain: MARKYFVAANWKCNGTLESIKSLTNSFNNLDFDPSKLDVVVFPVSVHYDHTRKLLQSKFSTGIQNVSKFGNGSYTGEVSAEIAKDLNIEYVIIGHFERRKYFHETDEDVREKLQASLKNNLKAVVCFGESLEQREQNKTIEVITKQVKAFVDLIDNFDNVILAYEPLWAIGTGKTATPEQAQLVHKEIRKIVKDTCGEKQANQIRILYGGSVNTENCSSLIQQEDIDGFLVGNASLKESFVDIIKSAM
notes: recombinant, E. coli BL21(DE3)pLysS, pTRC99A, purified (extra low-mass band on SDS-PAGE); dimer plus higher aggregates
As to B1, in the series “purified protein [1]”, the Km is 810 ± 40 µM, the kcat came out at 5846 ± 39 s⁻¹ and the kcat/Km was 7.3e+06 M⁻¹ s⁻¹.

B2: ScTIM (Saccharomyces cerevisiae S288C) (protein)
chain: ARTFFVGGNFKLNGSKQSIKEIVERLNTASIPENVEVVICPPATYLDYSVSLVKKPQVTVGAQNAYLKASGAFTGENSVDQIKDVGAKWVILGHSERRSYFHEDDKFIADKTKFALGQGVGVILCIGETLEEKKAGKTLDVVERQLNAVLEEVKDWTNVVVAYEPVWAIGTGLAATPEDAQDIHASIRKFLASKLGDKAASELRILYGGSANGSNAVTFKDKADVDGFLVGGASLKPEFVDIINSRN
notes: recombinant, E. coli BL21(DE3)pLysS, plasmid pKK233-3, purified; dimer plus higher aggregates
With B2, in “purified protein [2]”, the Km came out at 790 ± 100 µM, the kcat was found to be 8690 ± 142 s⁻¹ and the kcat/Km was 1.1e+07 M⁻¹ s⁻¹.

B3: TcTIM (Trypanosoma cruzi) (protein)
chain: MASKPQPIAAANWKCNGSESLLVPLIETLNAATFDHDVQCVVAPTFLHIPMTKARLTNPKFQIAAQNAITRSGAFTGEVSLQILKDYGISWVVLGHSERRLYYGETNEIVAEKVAQACAAGFHVIVCVGETNEEREAGRTAAVVLTQLAAVAQKLSKEAWSRVVIAYEPVWAIGTGKVATPQQAQEVHELLRRWVRSKLGTDIAAQLRILYGGSVTAKNARTLYQMRDINGFLVGGASLKPEFVEIIEATK
notes: recombinant, E. coli BL21(DE3)pLysS, pET-3a, purified; dimer plus higher aggregates
For the protein B3, in the series “purified protein [3]”, the Km was 440 ± 50 µM, the kcat amounted to 6000 ± 230 s⁻¹ and the kcat/Km worked out at 1.36e+07 M⁻¹ s⁻¹.

B4: TtTIM (Thermus thermophilus HB8) (protein)
chain: MRRVLVAGNWKMHKTPSEARVWFAELKRLLPPLQSEAAVLPAFPILPVAKEVLAETQVGYGAQDVSAHKEGAYTGEVSARMLSDLGCRYAIVGHSERRRYHGETDALVAEKAKRLLEEGITPILCVGEPLEVREKGEAVPYTLRQLRGSLEGVEPPGPEALVIAYEPVWAIGTGKNATPEDAEAMHQAIRKALSERYGEAFASRVRILYGGSVNPKNFADLLSMPNVDGGLVGGASLELESFLALLRIAG
notes: recombinant, E. coli BL21(DE3)pLysS, pET-3aHIS (His tag), purified; dimer plus higher aggregates
As for B4, in “purified protein [4]”, the Km was 60 ± 10 µM, the kcat worked out at 1788 ± 0.9 s⁻¹ and the kcat/Km was determined as 3e+07 M⁻¹ s⁻¹.

B5: TbTIM (Trypanosoma brucei brucei) (protein)
chain: MSKPQPIAAANWKCNGSQQSLSELIDLFNSTSINHDVQCVVASTFVHLAMTKERLSHPKFVIAAQNAIAKSGAFTGEVSLPILKDFGVNWIVLGHSERRAYYGETNEIVADKVAAAVASGFMVIACIGETLQERESGRTAVVVLTQIAAIAKKLKKADWAKVVIAYEPVWAIGTGKVATPQQAQEAHALIRSWVSSKIGADVAGELRILYGGSVNGKNARTLYQQRDVNGFLVGGASLKPEFVDIIKATQ
notes: as for B3
B5: in the series “purified protein [5]”, the Km was determined as 450 ± 50 µM, the kcat was 5170 ± 117 s⁻¹ and the kcat/Km worked out at 1.15e+07 M⁻¹ s⁻¹.

B6: LmTIM (Leishmania mexicana) (protein)
chain: MSAKPQPIAAANWKCNGTTASIEKLVQVFNEHTISHDVQCVVAPTFVHIPLVQAKLRNPKYVISAENAIAKSGAFTGEVSMPILKDIGVHWVILGHSERRTYYGETDEIVAQKVSEACKQGFMVIACIGETLQQREANQTAKVVLSQTSAIAAKLTKDAWNQVVLAYEPVWAIGTGKVATPEQAQEVHLLLRKWVSENIGTDVAAKLRILYGGSVNAANAATLYAKPDINGFLVGGASLKPEFRDIIDATR
notes: as for B4
On to B6, for which, in “purified protein [6]”, the Km was determined as 470 ± 10 µM, the kcat is 2800 ± 164 s⁻¹ and the kcat/Km amounted to 5.9e+06 M⁻¹ s⁻¹.

B7: TsTIM (Taenia solium) (protein)
chain: MTRKLFVGGNWKMNGSYSHINTFFDTLQKADTDPNADIVIGVPACYLKYAQDKAPKGIKIAAENCYKVGSGAFTGEISTEMIKDCGCEWVILGHSERRHIFGESNELIGEKVKHALDSGLNVIPCIGELLSEREAGKTNDVCFAQMDAIAKNVPSKEAWDKVVIAYEPVWAIGTGKTATPAQAQEVHKVVRDWIRKHVDAGIADKVRILYGGSVTASNAKDLGTQPDVDGFLVGGASLKPDFITIINARR
notes: recombinant, E. coli BL21(DE3)pLysS, pRSET (His tag), purified; dimer plus higher aggregates
Consider B7, for which, in the series “purified protein [7]”, the Km was determined as 520 ± 30 µM, the kcat came to 2460 ± 101 s⁻¹ and the kcat/Km worked out at 4.7e+06 M⁻¹ s⁻¹.

B8: EhTIM (Entamoeba histolytica HM-1:IMSS) (protein)
chain: MSARKFVVGGNWKCNGTLASIETLTKGVAASVDAELAKKVEVIVGVPFIYIPKVQQILAGEANGANILVSAENAWTKSGAYTGEVHVGMLVDCQVPYVILGHSERRQIFHESNEQVAEKVKVAIDAGLKVIACIGETEAQRIANQTEEVVAAQLKAINNAISKEAWKNIILAYEPVWAIGTGKTATPDQAQEVHQYIRKWMTENISKEVAEATRIQYGGSVNPANCNELAKKADIDGFLVGGASLDAAKFKTIINSVSEKF
notes: recombinant, E. coli BL21(DE3)pLysS, plasmid given as pRET, purified; dimer plus higher aggregates
As for B8, in “purified protein [8]”, the Km turned out to be 140 ± 30 µM, the kcat is 3650 ± 254 s⁻¹ and the kcat/Km was 2.5e+07 M⁻¹ s⁻¹.

For orientation: Km means the substrate concentration at which the rate is half of its maximum. For orientation: kcat means the number of substrate molecules converted per active site and unit of time at saturation. The term kcat/Km denotes the second-order rate constant that governs catalysis at low substrate concentration.
